Measurements taken from article PMC8467750.

Legend:
[1] = biological target: histamine H4 receptor fused C-terminally to the small fragment of NanoLuc (H4R–NlucC) (human) (UniProt Q9H3N8); assay: split reporter (BiFC, NanoBiT); split-NanoLuc mini-G protein recruitment assay in live HEK293T cells transiently co-expressing receptor–NlucC and NlucN–mini-G; recruitment upon histamine (serial dilutions), 37 °C, L-15 medium with 10 mM HEPES, furimazine; AUC of 45 min traces normalised to 100 µM histamine in the canonical system (H2R–mGs or H4R–mGsi, 100%) and L-15 (0%); N = 3, each in triplicate
[2] = biological target: histamine H2 receptor fused C-terminally to the small fragment of NanoLuc (H2R–NlucC) (human) (UniProt P25021); assay: as above
UniProt P25021, sequence (P25021 whole entry, the tested form may be a part): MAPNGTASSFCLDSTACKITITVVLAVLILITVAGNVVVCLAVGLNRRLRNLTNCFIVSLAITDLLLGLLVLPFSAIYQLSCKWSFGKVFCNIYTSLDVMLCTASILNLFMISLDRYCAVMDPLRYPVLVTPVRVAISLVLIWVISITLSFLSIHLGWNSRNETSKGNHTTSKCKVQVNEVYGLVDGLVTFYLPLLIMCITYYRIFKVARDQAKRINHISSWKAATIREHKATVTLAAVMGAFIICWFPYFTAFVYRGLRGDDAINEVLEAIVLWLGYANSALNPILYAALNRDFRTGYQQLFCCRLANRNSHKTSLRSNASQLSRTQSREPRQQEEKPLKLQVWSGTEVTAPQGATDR

UniProt Q9H3N8, sequence (Q9H3N8 whole entry, the tested form may be a part): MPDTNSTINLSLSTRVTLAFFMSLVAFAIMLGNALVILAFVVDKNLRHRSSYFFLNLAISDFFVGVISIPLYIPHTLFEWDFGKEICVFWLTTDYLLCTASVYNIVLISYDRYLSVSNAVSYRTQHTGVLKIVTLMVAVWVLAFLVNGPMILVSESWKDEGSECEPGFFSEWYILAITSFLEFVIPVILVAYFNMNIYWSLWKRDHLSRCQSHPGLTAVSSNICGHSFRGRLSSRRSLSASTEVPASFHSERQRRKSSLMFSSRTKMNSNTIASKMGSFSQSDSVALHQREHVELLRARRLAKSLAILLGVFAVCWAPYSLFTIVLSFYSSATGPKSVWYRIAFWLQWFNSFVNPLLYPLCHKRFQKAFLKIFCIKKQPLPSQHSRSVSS

## mini-G protein mGs fused N-terminally to the large fragment of NanoLuc (NlucN–mGs)
[1]
  Emax of histamine (mini-G recruitment): -13.5%
[2]
  Emax of histamine (mini-G recruitment): 100%
  pEC50 of histamine (mini-G recruitment): 6.86

## mini-G protein mGsi fused N-terminally to the large fragment of NanoLuc (NlucN–mGsi)
[1]
  Emax of histamine (mini-G recruitment): 100%
  pEC50 of histamine (mini-G recruitment): 6.6
[2]
  Emax of histamine (mini-G recruitment): 26.8%
  pEC50 of histamine (mini-G recruitment): 5.3

## mini-G protein mGsq fused N-terminally to the large fragment of NanoLuc (NlucN–mGsq)
[1]
  Emax of histamine (mini-G recruitment): 13.8%
[2]
  Emax of histamine (mini-G recruitment): 29.6%
  pEC50 of histamine (mini-G recruitment): 5.48
